From patent US20120082667A1 (IMMUNAS PHARMA, published 2012)

Key:
[1] = target: T1, synthesized A beta1-42 (UniProt P05067 672-713); experiment: dot blot: peptide spotted on nitrocellulose (0.1 micro g/dot), hybridoma culture supernatant, HRP anti-mouse IgG, ECL
T1 construct: domain: A beta1-42; spotted in the dot blot as the second of the two types of oligomers; also called A beta42 oligomer
Experimental: Dot blot analysis was carried out for hybridomas that gave positive result for primary screening. […] The membrane was blocked with Tris Buffer containing 5% low-fat milk and 0.05% Tween-20, and reacted with hybridoma culture supernatants and detected with chemiluminescence kit (ECL) after reacting with HRP-conjugated anti-mouse IgG antibody.

[2] = target: T2, A beta monomer prepared from synthetic A beta1-40 (TFA form), 0.1 mg/ml in PBS (UniProt P05067 672-711); experiment: competitive ELISA: antibody pre-incubated with soluble A beta1-40 monomer (inhibitor, varied), then binding to immobilised A beta1-40 oligomer read as OD450
T2 construct: domain: A beta1-40; also called A beta1-40 monomer; A beta40 monomer

[3] = target: T3, A beta oligomer prepared from synthetic A beta1-40 (HCl form), 0.1 mg/ml in PBS, incubated at 37 degrees C … (UniProt P05067 672-711); experiment: competitive ELISA: antibody pre-incubated with soluble A beta1-40 oligomer (inhibitor, varied), then binding to immobilised A beta1-40 oligomer read as OD450
T3 construct: domain: A beta1-40; non-fibrous assembly of A beta1-40; also called A beta1-40 oligomer; A beta40 oligomer

[4] = target: T3, A beta oligomer prepared from synthetic …; experiment: SPR, Biacore 3000, A beta1-40 oligomer on CM5 chip, antibody as analyte at five concentrations
Experimental: The analysis was carried out by Surface Plasmon Resonance (SPR) using Biacore 3000 (GE Healthcare Sciences).

B1: AL-211 antibody (antibody, IgG2b, V domains shown)
VH: QVTLKESGPGILKPSQTLSLTCSFSGFSLSTSGMGVGWIRQPSGKGLEWLAHIWWDDDKYYNPSLKSQLTISKDTSRNQVFLKITSVDTADTATYYCARRSLSRDYFDYWGQGTTLTVSS
VL: DVVMTQTPLSLPVSLGDQASISCRSSQSLVHSNGNTYLHWYLQKPGQSPKLLIYKVSNRFSGVPDRFSGSGSGTDFTLKISRVEAEDLGVYFCSQSTHVPLTFGAGTKLELK
B1: binds [1].

B2: AL-223 antibody (antibody, IgG2a, V domains shown)
VH: QVTLKESGPGILKPSQTLSLTCSFSGFSLSTSGMGVGWIRQPSGKGLEWLAHIWWDDDKYYNPSLKSQLTISKDTSRNQVFLKITSVDTADTATYYCARRALITTRDYFDYWGQGTTLTVSS
VL: DVLMTQTPLSLPVSLGDQASISCRSSQSIVHSNGNTYLEWYLQKPGQSPKLLIYKVSNRFSGVPDRFSGSGSGTDFTLKISRVEAEDLGVYYCFQGSHVPLTFGAGTKLELK
B2: binds [1]; binds [2]; binds [3].

B3: AL-227 antibody (antibody, IgG2a, V domains shown)
VH: not shown
VL: DVVMTQTPLSLPVSLGDQASISCRSSQSLVHSNGNTYLHWYLQKPGQSPKLLIYKVSNRFSGVPDRFSGSGSGTDFTLKISRVEAEDLGVYFCSQSTHVPLTFGAGTKLELK
B3: binds [1].

B4: AL-222 antibody (antibody, IgG2b, V domains shown)
VH: QVTLKESGPGILKPSQTLSLTCSFSGFSLSTAGMGVGWIRQPSGKGLEWLAHIWWDDDKYYNPSLKSQLTISKDTSRNQVFLKITSVDTADTATYYCARRGLYYGNYDAMDYWGQGTSVTVSS
VL: DVLMTQTPLSLPVSLGDQASISCRSSQSIVHSNGNTYLEWYLQKPGQSPKLLIYKVSTRFSGVPDRFSGSGSGTDFTLKISRVEAEDLGVYYCFQGSRVPLTFGAGTKLELK
B4: binds [1]; binds [2]; binds [3].

B5: AL-226 antibody (antibody, IgG2b, V domains shown)
VH: not shown
VL: DVVMTQTPLSLPVSLGDQASISCRSSQSLVHSNGNTYLHWYLQKPGQSPKLLIYKVSNRFSGVPDRFSGSGSGTDFTLKISRVEAEDLGVYFCSQSTHVPLTFGAGTKLELK
B5: binds [1].

B6: AL-212 antibody (antibody, IgG2b, V domains shown)
VH: QVTLKESGPGILKPSQTLSLTCSFSGFSLSTSGMGVGWIRQPSGKGLEWLAHIWWDDDKYYNPSLKSQLTISKDTSRNQVFLKITSVDTADTATYYCAPSTMITTFAYWGQGTLVTVSA
VL: DVVMTQTPLSLPVSLGDQASISCRSSQSLVHSNGNTYLHWYLQKPGQSPKLLIYKVSNRFSGVPDRFSGSGSGTDFTLKISRVEAEDLGVYFCSQSTHVPLTFGAGTKLELK
B6: binds [1].

B7: AL-213 antibody (antibody, IgG2b, V domains shown)
VH: QVQLKQSGPGLVQPSQSLSITCTVSGFSLTSYGVHWVRQSPGKGLEWLGVIWRGGSTDYNAAFMSRLSITKDNSKSQVFFKMNSLQADDTAIYYCANNRYERGGYYAMDYWGQGTSVTVSS
VL: DVLMTQTPLSLPVSLGDQASISCRSSQSIVHSNGNTYLEWYLHKPGQSPKLLIYKVSNRFSGVPDRFSGSGSGTDFTLKISRVEAEDLGVYYCFQGSHVPLTFGAGTKLELK
B7: binds [1].

B8: AL-216 antibody (antibody, IgG2b, V domains shown)
VH: QVQLQQPGAELVKPGASVKLSCKASGYTFTSYWMHWVKQRPGQGLEWIGEINPSNGRTNYNEKFKSKATLTVDKSSSTAYMQLSSLTSEDSAVYYCAREHYYGYGAYWGQGTLVTVSA
VL: DVLMTQTPLSLPVSLGDQASISCRSSQSIVHSNGNTYLEWYLQKPGQSPKLLIYKVSNRFSGVPDRFSGSGSGTDFTLKISRVEAEDLGVYYCFQGSHVPLTFGAGTKLELK
B8: binds [1].

B9: AL-228 antibody (antibody, IgG2a, V domains shown)
VH: QVTLKESGPGILKPSQTLSLTCSFSGFSLSTSGMGVGWIRQPSGKGLEWLAHIWWDDDKYYNPSLKSRLTISKDTSRNQVFLKITSVDTADTATYYCTRRALLRLQGDYFDYWGQGTTLTVSS
VL: DVLMTQTPLSLPVSLGDQASISCRSSQSIVHSNGNTYLEWYLQKPGQSPKLLIYKVSNRFSGVPDRFSGSGSGTDFTLKISRVEAEDLGVYYCFQGSHVPLTFGAGTKLELK
B9: binds [1].

B10: AL-217 antibody (antibody, IgG1, V domains shown)
VH: QVTLKESGPGILQPSQTLSLTCSFSGFSLSTSGMGVSWIRQPSGKGLEWLAHIYWDDDKRYNPSLKSRLTISKDTSSNQVFLKITSVDTADTATYYCARRGPSYYRYRDYFDYWGQGTTLTVSS
VL: DVLMTQTPLSLPVSLGDQASISCRSSQSIVHSNGNTYLEWYLQKPGQSPKLLIYKVSNRFSGVPDRFSGSGSGTDFTLKISRVEAEDLGVYYCFQGSHVPLTFGAGTKLELK
Work on B10 yielded a Kd [4] of 6.44 nM, a koff [4] of 0.00123 s⁻¹ and a kon [4] of 191000 M⁻¹ s⁻¹.

B11: AL-214 antibody (antibody, IgG2b, V domains shown)
VH: QVQLKQSGPGLVQPSQSLSITCTVSGFSLTSYGVHWVRQSPGKGLEWLGVIWRGGSTDYNAAFMSRLSITKDNSKSQVFFKMNSLQADDTAIYYCANNRYERGGYYAMDYWGQGTSVTVSS
VL: DVLMTQTPLSLPVSLGDQASISCRSSQSIVHSNGNTYLEWYLQKPGQSPKLLIYKVSNRFSGVPDRFSGSGSGTDFTLKISRVEAEDLGVYYCFQGSHVPLTFGAGTKLELK
B11: binds [1].

B12: AL-225 antibody (antibody, IgG2a, V domains shown)
VH: QVTLKESGPGILKPSQTLSLTCSFSGFSLSTSGMGVGWIRQPSGKGLEWLAHIWWDDDKYYNPSLKSQLTISKDTSRNQVFLKITSVDTADTATYYCARRGLIRQDYFDYWGQGTTLTVSS
VL: DVLMTQTPLSLPVSLGDQASISCRSSQSIVHSNGNTYLEWYLQKPGQSPKLLIYKVSNRFSGVPDRFSGSGSGTDFTLKISRVEAEDLGVYYCFQGSHVPLTFGAGTKLELK
For B12, the Kd [4] was 126 nM, the koff [4] was 0.0192 s⁻¹ and the kon [4] was 152000 M⁻¹ s⁻¹.

B13: AL-220 antibody (antibody, IgG2b, V domains shown)
VH: QVQLQQPGAELVKPGASVKLSCKASGYTFTSYWMHWVKQRPGQGLEWIGEINPSNGRTNYNEKFKSKATLTVDKSSSTAYMQLSSLTSEDSAVYYCAREHYYGYGAYWGQGTLVTVSA
VL: DVLMTQTPLSLPVSLGDQASISCRSSQSIVHSNGNTYLEWYLQKPGQSPKLLIYKVSNRFSGVPDRFSGSGSGTDFTLKISRVEAEDLGVYYCFQGSHVPYTFGGGTKLEIK
B13: binds [1].

B14: AL-224 antibody (antibody, IgG2a, V domains shown)
VH: DVQLVESGGGLVQPGGSRKLSCAASGFTFSSFGMHWVRQAPEKGLEWVAYISSGSSTIYYADTVKGRFTISRDNPKNTLFLQMTSLRSEDTAMYYCARYGNYAMDYWGQGTSVTVSS
VL: DVLMTQTPLSLPVSLGDQASISCRSSQSIVHSNGNTYLEWYLQKPGQSPKLLIYKVSNRFSGVPDRFSGSGSGTDFTLKIGRVEAEDLGVYYCFQGSHVPPTFGGGTELEIK
With B14 the Kd [4] was 544 nM, the koff [4] was 0.155 s⁻¹ and the kon [4] was 285000 M⁻¹ s⁻¹.

B15: AL-206 antibody (antibody, IgG2b, V domains shown)
VH: DVQLQESGPGLVKPSQSLSLACTVTGYSITSDYAWNWIRQFPGNKLEWLGYISYSGTTRYNPSLKSRISITRDTSKNQFFLQLNSVTTEDTATYYCAIYGSSYYWYFDVWGAGTTVTVSS
VL: QIVLTQSPAIMSASLGERVTMTCTASSSVSSSYLHWYQQKPGSSPKLWIYSTSNLASGVPARFSGSGSGTSYSLTISSMEAEDAATYYCHQYHRSPPTFGAGTKLELK
B15: binds [1].

B16: AL-208 antibody (antibody, IgG2b, V domains shown)
VH: QVQLQQPGAELVKPGASVKLSCKASGYTFTSYWMHWVKQRPGQGLEWIGEINPSNGRTNYNEKFKSKATLTVDKSSSTAYMQLSSLTSEDSAVYYCARQGYRHGVFAYWGQGTLVTVSA
VL: QIVLTQSPAIMSASLGERVTMTCTASSSVSSSYLHWYQQKPGSSPKLWIYSTSNLASGVPARFSGSGSGTSYSLTISSMEAEDAATYYCHQYHRSPPTFGAGTKLELK
B16: binds [1].

B17: AL-207 antibody (antibody, IgG2b, V domains shown)
VH: QVTLKESGPGILKPSQTLSLTCSFSGFSLSTSGMGVGWIRQPSGKGLEWLAHIWWDDDEYYNPSLKSQLTISKDTTRNQVFLKITSVDTADTATYYCARRAIHYYGYDAMDYWGQGTSVTVSS
VL: QIVLTQSPAIMSASLGERVTMTCTASSSVSSSYLHWYQQKPGSSPKLWIYSTSNLASGVPARFSGSGSGTSYSLTISSMEAEDAATYYCHQYHRSPPTFGAGTKLELK
B17: binds [1].

B18: AL-202 antibody (antibody, IgG2a, V domains shown)
VH: EVQLVESGGDLVKPGGSLKLSCAASGFTFSSYGMSWVRQTPDKRLEWVATISSGGSYTYYPDSVKGRFTISRDNAKNTLYLQMSSLKSEDTAMYYCARPLYYRHGVFAYWGQGTLVTVSA
VL: DVQITQSPSYLAASPGETITINCRASKSISKYLAWYQEKPGKTNKLLIYSGSTLQSGIPSRFSGSGSGTDFTLTISSLEPEDFAMYYCQQHNEYPWTFGGGTKLEIK
B18: binds [1].

B19: AL-209 antibody (antibody, IgG2a, V domains shown)
VH: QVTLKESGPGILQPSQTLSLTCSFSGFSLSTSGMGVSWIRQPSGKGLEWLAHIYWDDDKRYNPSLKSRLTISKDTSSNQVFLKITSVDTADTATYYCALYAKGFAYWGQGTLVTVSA
VL: DIQMTQSPSSLSASLGGKVTITCKASQDINKYIAWYQHKPGKGPRLLIHYTSTLQPGIPSRFSGSGSGRDYSFSISNLEPEDIATYYCLQYDNLYTFGGGTKLEIK
B19: binds [1]; binds [2]; binds [3].
